Reference: article PMC9283627, “Auxotrophic and prototrophic conditional genetic networks reveal the rewiring of transcription factors in Escherichia coli”

Target: T1, YneJ (Escherichia coli (K-12 strain not …, UniProt P77309 1-293))
T1 sequence: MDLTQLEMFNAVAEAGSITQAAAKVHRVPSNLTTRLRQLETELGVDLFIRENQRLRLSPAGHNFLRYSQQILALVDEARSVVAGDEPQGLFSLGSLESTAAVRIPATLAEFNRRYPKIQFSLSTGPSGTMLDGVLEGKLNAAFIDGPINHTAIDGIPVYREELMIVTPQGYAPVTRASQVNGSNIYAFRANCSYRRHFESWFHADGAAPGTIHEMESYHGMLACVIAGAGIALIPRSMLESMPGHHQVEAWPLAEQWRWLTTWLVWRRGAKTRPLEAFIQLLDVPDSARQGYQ
Assay: fluorescence polarization; 2 mM Gln; PBS (pH 6.5), 0.5 mM EDTA, 7 mM MgCl2, 100 mM KCl, 5 mM phosphate, herring sperm DNA, 50 C; 10 nM labeled dsDNA
Conditions: protein: recombinant; tags: N-terminal His6 (Methods; called YneJ-His6 in text); chain copies: 4; label: 6-FAM on S41 (printed at the 5' end; Methods say 3' end); blunt

B1: sad-yneJ consensus motif 21 bp (dsDNA)
DNA 1: GGGTTCTCGATTCGTGAAGGG
DNA 2: CCCTTCACGAATCGAGAACCC
**Q.** Does B1 bind?
**A.** binds
